Literature values in publication PMC9221339.

Target: IGF-II (Homo sapiens) (UniProt P01344)
Sequence (P01344 25-91): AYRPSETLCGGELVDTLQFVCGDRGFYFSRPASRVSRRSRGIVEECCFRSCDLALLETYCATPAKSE

Chain of IGF-1R (P08069 31-736): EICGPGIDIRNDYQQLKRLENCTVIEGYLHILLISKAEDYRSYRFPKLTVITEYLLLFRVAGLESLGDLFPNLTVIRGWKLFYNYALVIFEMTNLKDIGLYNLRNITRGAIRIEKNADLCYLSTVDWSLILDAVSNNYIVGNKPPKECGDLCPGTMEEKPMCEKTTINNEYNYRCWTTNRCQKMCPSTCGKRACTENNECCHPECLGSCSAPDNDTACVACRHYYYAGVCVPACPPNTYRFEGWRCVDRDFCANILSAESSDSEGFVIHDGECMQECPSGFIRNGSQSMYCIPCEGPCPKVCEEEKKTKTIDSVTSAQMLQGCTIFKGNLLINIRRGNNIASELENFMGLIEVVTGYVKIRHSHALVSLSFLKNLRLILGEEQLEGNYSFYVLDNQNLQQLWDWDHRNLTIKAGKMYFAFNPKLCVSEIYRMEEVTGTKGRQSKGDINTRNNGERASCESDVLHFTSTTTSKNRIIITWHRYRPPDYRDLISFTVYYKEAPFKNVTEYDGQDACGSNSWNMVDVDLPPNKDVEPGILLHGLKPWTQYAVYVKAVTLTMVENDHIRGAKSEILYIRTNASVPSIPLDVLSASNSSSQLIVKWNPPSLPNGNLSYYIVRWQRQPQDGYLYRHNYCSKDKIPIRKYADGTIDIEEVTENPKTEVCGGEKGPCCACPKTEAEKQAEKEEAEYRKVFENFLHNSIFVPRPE
Chain of IGF-1R (P08069 741-935): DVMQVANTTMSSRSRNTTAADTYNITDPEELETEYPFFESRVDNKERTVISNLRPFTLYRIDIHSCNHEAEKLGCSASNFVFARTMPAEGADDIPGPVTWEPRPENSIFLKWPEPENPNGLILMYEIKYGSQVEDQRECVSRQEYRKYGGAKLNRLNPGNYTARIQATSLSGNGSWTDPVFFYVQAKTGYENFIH

Kd: 3 nM
Substance: IGF-1R (from UniProt P08069)
